Results reported in patent publication US20230332166A1, “FORMATE-INDUCIBLE PROMOTERS AND METHODS OF USE THEREOF” (Imperial College Innovations Ltd, priority 2020, published 2023).

B1: Yali0C08074: putative Y. lipolytica FDH gene; promoter region SEQ ID NO: 5 (1 Kb) and 21 (1.5 Kb) (nucleic acid, listed as Yarrowia lipolytica)
DNA: ATGAAGGTCCTTCTTGTTCTTTACGATGCTGGCTCCCATGCCAAGGATGAGCCCAAGCTGCTTGGATGCACCGAGAACGAGCTCGGTATCAGAGACTGGCTCGAGTCTCAGGGACATACCCTTGTAACTACGTCTTCCAAGGACGGTGCCGACTCTGTCCTCGACAAGGAGATTGTCGATGCCGATGTAGTCATCACCACCCCCTTTCATCCTGGATACATCAACAAGGAGCGAATCGACAAAGCCAAGAAGCTCAAGATTTGCATCACTGCTGGTGTCGGCTCTGACCACGTCGATCTCGACGCTGCCAACGCCCGAGATATTGCTGTTCTCGAAGTCACCGGCTCCAATGTCCAGTCTGTTGCCGAGCACGTTATCATGACCATGTTGGTCCTGGTGCGAAACTTTGTCCCTGCTCACGAGCAGATCATCTCTGGCGGTTGGGACGTTGCTGCTGTTGCCAAGGACTCATACGATCTCGAGGGTAAGGTCATCGGCACCGTTGGAGGAGGCCGAATTGGCCAGCGAGTGCTCAAGCGATGCAAGCCCTTCGACCCCATGGAGATGCTCTACTACGACTATCAGGCCATGCCAGCTGACGTTGAGAAGGAGATTGGATGTCGTCGAGTCGAGTCTCTCGAGGAGATGCTCTCTCTTTGTGACGTGGTCACCATCAACTGCCCTCTGCACGCTTCCACCAAGGGCCTGTTCAACAAAGAGCTCATCTCGCACATGAAGGATGGTGCCTGGCTCGTTAACACCGCTCGAGGAGCCATTTGTGTCACCGAGGACATTGTCGAGGCTCTCGAGTCCGGTAAGATCCGAGGTTACGGCGGAGACGTTTGGTTCCCCCAGCCTGCCCCTAAGGACCACCCCTGGAGAACCATGCGAAACAAGTACGGGGGAGGAAACGCCATGACTCCTCATATCTCCGGAACTTCCATCGACGCCCAGGGCCGATATGCCGAGGGCACCAAGAAGATCCTTGAGGTTTTCTTTTCTGGAAAGCAGGATTATCGACCCCAGGACATTATCTGCATCAATGGTCACTACGGCACAAAAGCTTACGGAGATGACAAGGAGCACAAGGAGCACCAGCTCAAGTAAATATATATAGCTAGAAACATATCTCGTTGTTGCTT
modifications: YALI0C08074g
B2: Yali0A21353: putative Y. lipolytica FDH gene; promoter region SEQ ID NO: 2 (1 Kb) and 18 (1.5 Kb) (nucleic acid, listed as Yarrowia lipolytica)
DNA: ATGAAGGTCCTTCTTATTCTCTACGATGCCGGCTCCCACGCCAAGGACGAGCCCAAGCTGCTTGGATGCACCGAGAACGAGCTTGGTATTCGAGACTGGCTCGAGTCGCAGGGCCACACTCTCGTCACCACCTCTTCCAAGGACGGTGCCGACTCTGTGCTTGACAAGGAGATTGTTGACGCTGATGTAGTCATCACCACCCCGTTCCACCCCGGCTACATCAACAAGGAGCGAATTGACAAGGCCAAGAAGCTCAAGATCTGCATCACCGCCGGTGTCGGCTCCGACCACGTGGACCTCGATGCTGCCAACGCCCGAAACATTGCCGTTCTCGAGGTCACCGGCTCGAACGTCCAGTCCGTCGCTGAGCATGTTGTCATGACCATGCTGGTGCTGGTCCGAAACTTTGTCCCTGCCCACGAGCAGATTATTTCTGGCGGCTGGGACGTTGCTGCGGTTGCCAAGGACTCTTACGATCTCGAGGGCAAGGTCATCGGTACCGTTGGAGGCGGTCGAATCGGCCAGCGAGTGCTCAAGCGATGCAAGCCCTTTGACCCCATGGAGATGCTCTACTACGACTACCAGGCTATGCCAGCTGATGTGGAGAATGAGATTGGATGCCGACGAGTCGAGTCTCTGGAGGAGATGCTCTCTCTCTGTGACGTTGTAACCATCAACTGTCCTCTCCATGCCTCCACCAAGGGTCTCTTCAACAAGGAGCTCATTTCCCACATGAAGGACGGCGCTTGGCTCGTCAACACTGCTCGAGGAGCCATCTGCGTCACCGAGGACATTGTCGACGCTCTCGAGTCCGGCAAGATCCGAGGCTACGGTGGTGACGTCTGGTTCCCCCAGCCTGCCCCCAAGGACCACCCCTGGAGAACCATGCGAAACAAGTACGGCGGTGGAAACGCCATGACTCCCCATATCTCCGGTACTTCCATCGACGCCCAGGGCCGATACGCTGAGGGTACCAAGAAGATTCTTGAGGTCTTTTTCTCTGGCAAGCAGGATTACCGCCCCCAGGACATTATCTGCATCAACGGTCACTACGGTACCAAGGCTTACGGTGACGACAAGGAGCACAAGGCCCACGTTTCCAAGTAGCTGTTTAACTTATATAAGCAATTGACTGGATTTGATAACGA
modifications: YALI0A12353g

Tested on: Y. lipolytica JMY2900
Assay: qPCR of putative FDH gene transcription upon induction with sodium formate
Assay type: cell-based, Yarrowia lipolytica
Conditions: YNB with 0.5% sodium formate, 6 h, 28° C., vs absence of formate; qPCR normalised to actin
Description: FIG. 3: Transcription levels of the FDH genes of Yarrowia lipolytica W29 measured by qPCR, normalised to actin (ACT1) expression. Yarrowia lipolytica was grown in YNB supplemented with 1% glucose and 0.5% yeast extract at 15 h at 28° C., before being washed and transferred into YNB with 0.5% of sodium formate for induction and grown for 6 h.
The inducibility of the putative FDH genes with formate was then tested by qPCR. YALI0E14256g1_1 and the nine putative FDH with the highest % identity to YALI0E14256g1_1 were selected for testing. Y. lipolytica JMY2900 was cultured in YNB media supplemented with 1% glucose and 0.5% yeast extract for 15 h at 28° C. Cells were washed with distilled water and cultured in fresh liquid YNB media supplemented with 0.5% sodium formate at 28° C. with agitation at 160 rpm, before being harvested at 6 h post-inoculated. Cells were frozen in liquid nitrogen and stored at −80° C. RNA was subsequently extracted using the RNeasy Mini Kit (Qiagen), and 2 μg was treated with DNAse (Ambion; Life Science Technologies, Saint-Aubain, France). cDNA was synthesised using the Maxima First Strand cDNA synthesis kit (Thermo Fischer Scientific, Villebon sur Yvette, France). qPCR was then performed using the SYBRgreen mastermix (Thermo Fischer Scientific) with gene-specific primers designed using Primer3 software. Relative expression levels were calculated using ΔCT and ΔΔCT methods. Expression levels were normalised to actin.

| Molecule | Fold increase on induction (fold change expression of putative FDH genes upon induction with sodium formate) [fold] |
| --- | --- |
| B1 | 3.7 |
| B2 | 7.9 |
